Measured values published in patent publication US20180003631A1.

Experiments:
[1] = molecular target: T1, isolated rNav1.2a VSD IV paddle peptide with R1629A/L1630A substitutions and C-terminal K-linked biotin (rat); assay: SPR (Biacore T200), heterogeneous ligand model, site 2, n=3, mean±SD; site 2, lower affinity KD2, n=3
[2] = molecular target: T1, isolated rNav1.2a VSD IV paddle peptide …; assay: site 1 of heterogeneous ligand model (ka1)
[3] = molecular target: T1, isolated rNav1.2a VSD IV paddle peptide …; assay: SPR (Biacore T200), heterogeneous ligand model, site 2
[4] = molecular target: T2, rNav1.2a/Kv2.1 VSD IV paddle chimera (WT paddle) (rat), P15387; assay: cell-based or functional assay
T2 chain: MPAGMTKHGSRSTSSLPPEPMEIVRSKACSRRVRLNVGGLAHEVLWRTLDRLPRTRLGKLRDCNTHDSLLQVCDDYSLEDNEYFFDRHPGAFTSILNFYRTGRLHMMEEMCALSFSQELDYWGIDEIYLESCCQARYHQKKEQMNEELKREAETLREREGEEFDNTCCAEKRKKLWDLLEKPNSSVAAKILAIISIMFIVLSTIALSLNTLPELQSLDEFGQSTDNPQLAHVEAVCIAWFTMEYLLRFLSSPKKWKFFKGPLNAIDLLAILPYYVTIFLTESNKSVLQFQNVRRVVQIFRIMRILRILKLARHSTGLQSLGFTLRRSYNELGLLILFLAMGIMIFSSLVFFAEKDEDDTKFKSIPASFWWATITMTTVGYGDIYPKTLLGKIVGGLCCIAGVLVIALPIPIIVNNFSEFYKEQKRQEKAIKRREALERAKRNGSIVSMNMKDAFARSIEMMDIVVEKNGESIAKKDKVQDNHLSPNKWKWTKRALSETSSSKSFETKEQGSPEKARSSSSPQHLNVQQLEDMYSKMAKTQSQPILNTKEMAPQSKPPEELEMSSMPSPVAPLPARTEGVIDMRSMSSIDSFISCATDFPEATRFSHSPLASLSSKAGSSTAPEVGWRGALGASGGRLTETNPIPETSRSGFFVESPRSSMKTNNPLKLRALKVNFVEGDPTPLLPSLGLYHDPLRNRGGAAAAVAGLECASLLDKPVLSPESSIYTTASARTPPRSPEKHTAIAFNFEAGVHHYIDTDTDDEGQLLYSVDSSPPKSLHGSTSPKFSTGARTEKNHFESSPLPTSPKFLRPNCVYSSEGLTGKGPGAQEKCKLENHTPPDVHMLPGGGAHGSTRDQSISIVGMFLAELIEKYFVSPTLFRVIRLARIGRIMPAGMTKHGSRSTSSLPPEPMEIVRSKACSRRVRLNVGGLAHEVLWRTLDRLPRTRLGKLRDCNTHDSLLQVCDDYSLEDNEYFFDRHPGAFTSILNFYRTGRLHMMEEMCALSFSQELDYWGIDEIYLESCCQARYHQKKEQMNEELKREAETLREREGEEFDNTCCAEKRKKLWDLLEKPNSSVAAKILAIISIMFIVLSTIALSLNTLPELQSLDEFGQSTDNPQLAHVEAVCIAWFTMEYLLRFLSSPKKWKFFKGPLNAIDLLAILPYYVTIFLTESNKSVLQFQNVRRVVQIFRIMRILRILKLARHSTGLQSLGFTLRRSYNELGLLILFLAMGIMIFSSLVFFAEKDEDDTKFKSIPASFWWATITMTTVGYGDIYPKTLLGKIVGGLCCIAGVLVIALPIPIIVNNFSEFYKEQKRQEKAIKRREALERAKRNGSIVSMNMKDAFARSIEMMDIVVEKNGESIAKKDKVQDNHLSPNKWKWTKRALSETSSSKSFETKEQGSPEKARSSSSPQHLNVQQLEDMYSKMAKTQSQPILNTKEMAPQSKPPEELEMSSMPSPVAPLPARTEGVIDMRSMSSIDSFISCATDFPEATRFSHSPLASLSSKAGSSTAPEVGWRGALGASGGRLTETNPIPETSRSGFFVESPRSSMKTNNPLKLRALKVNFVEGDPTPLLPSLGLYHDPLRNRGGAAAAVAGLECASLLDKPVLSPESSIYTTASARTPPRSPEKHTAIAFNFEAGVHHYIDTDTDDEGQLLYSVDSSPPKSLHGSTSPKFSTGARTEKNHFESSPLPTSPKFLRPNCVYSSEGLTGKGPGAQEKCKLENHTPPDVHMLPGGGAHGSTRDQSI

[5] = molecular target: rNav1.2a/Kv2.1 VSD IV chimera containing the R1629A/L1630A substitutions (rat), P15387; assay: cell-based or functional assay
[6] = molecular target: T1, isolated rNav1.2a VSD IV paddle peptide …; assay: SPR (Biacore T200), heterogeneous ligand model, site 1, n=3, mean±SD; site 1, high affinity KD1, n=3
[7] = molecular target: T1, isolated rNav1.2a VSD IV paddle peptide …; assay: site 2 of heterogeneous ligand model (ka2)
[8] = molecular target: T1, isolated rNav1.2a VSD IV paddle peptide …; assay: SPR (Biacore T200), heterogeneous ligand model, site 1
[9] = molecular target: T1, isolated rNav1.2a VSD IV paddle peptide …; assay: site 1 of heterogeneous ligand model (kd1)
[10] = molecular target: T1, isolated rNav1.2a VSD IV paddle peptide …; assay: site 2 of heterogeneous ligand model (kd2)

B1: AaHII from Androctonus australis hector, P01484 20-83 (peptide)
chain: VKDGYIVDDVNCTYFCGRNAYCNEECTKLKGESGYCQWASPYGNACYCYKLPDHVRTKGPGRCH
modifications: not checked
For B1, the Kd [1] was 747 nM, the kon [2] was 2330 M⁻¹ s⁻¹ and the RUmax2 [3] was 23 RU. The apparent KD (from K+ current inhibition, two-electrode voltage clamp, Xenopus oocytes) [4] was 1010 nM, the apparent KD (from K+ current inhibition, two-electrode voltage clamp, Xenopus oocytes) [5] was 193 nM and the Kd [6] was 479 nM. For the same binder, the kon [7] was 38200 M⁻¹ s⁻¹, the RUmax1 [8] was 135 RU and the koff [9] was 0.000979 s⁻¹. For the same binder, the koff [10] was 0.0281 s⁻¹.
